# The nanobody polyreactivity screen of Harvey et al. (2022)
# Experiment: yeast display, Sf9 membrane polyspecificity reagent, FACS + sequencing; frameworks hold sequencing errors
# In short: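 Galactose induction of a Saccharomyces cerevisiae BJ5465 synthetic nanobody display library ran 36–48 hours. The cells were then stained for 1 hour at 4 °C with 10% biotinylated, detergent-solubilized Sf9 membrane reagent, pulled down on streptavidin microbeads and FACS-sorted into low and high (top ~1%) gates on expression and reagent-binding fluorescence. Labels for polyreactivity follow the gate of origin.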
row,Sequence,polyreactivity (PSR sort gate)
1,QVQLVESGGGLVQAGGSLRLSCAASGRIFVSNAMGWYRQAPGKERELVAAISKSGGRTYYADSVKGRFTISRDNAKNTVYLQMNSLKPEDTAVYYCAARSRVSPRYDYWGQGTQVTVSS,high polyreactivity
2,QVQLVESGGGLVQAGGSLRLSCAASGRIFVSNAMGWYRQAPGKERELVAGINSGDRTYYADSVKGRFTISRDNAKNTVYLQMNSLNPEDTAVYYFADSSRRGTGLRYYWGQGTQVTVSS,high polyreactivity
3,QVQLVESGGGLVQAGGSLRLSCAASGRIFVSYAMGWYRQAPGKERELVADMSWSGSITYYADSVKGRFTISRDNAKNTVYLQMNSLKPEDTAVYYCAKKSIYDYSTTYPEYDYWGQGTQVTVSS,low polyreactivity
4,QVQLVESGGGLVQAGGSLRLSCAASGRIFVTNAMGWYRQAPGKERELVAAISTGGSTNYADSVKGRFTISRDNAKNTVYVQRNSLKPEDTAVYYCNRGSRYSHKYDYWGQGTQVTVSP,high polyreactivity
5,QVQLVESGGGLVQAGGSLRLSCAASGRIFVTNAMGWYRQAPGKERELVAAISYRGGRTYYADSVKGRFTISRDNAKNTVYLQMNSLKPEDTAVYYCNAVTRGPFDYWGQGTQVTVSS,high polyreactivity
6,QVQLVESGGGLVQAGGSLRLSCAASGRIFVTYVMGWYRPAPGKERELVAAISRRGGTTYYADSVKGRFTISRDNAKNTVYLQMNSLKPEDTAVYYCNVARHYAVESGYWGQGTQVTVSS,high polyreactivity
7,QVQLVESGGGLVQAGGSLRLSCAASGRIFVVYAMGWYRQAPGKERELVAAIRSGGSTNYADSVKGRFTISRDNAKNTVYLQMNSLKPEDTAVYYCADCKWHSAYDYWGQGTQVTVSS,high polyreactivity
8,QVQLVESGGGLVQAGGSLRLSCAASGRIFVVYAMGWYRQAPGKERELVATITSGGSTYYADSVKGRFTISRDNAKNTVYLQMNSLKPEDTAVYYCAAYAYIFLDWGGYPYYLYEYDYWGQGTQVTVSS,low polyreactivity
9,QVQLVESGGGLVQAGGSLRLSCAASGRIFVVYVMGWYRQAPGKERELVAAISYSTGSTYYADSVKGRFTISRDNAKNTVYLQMKSLKPEDTAVYYCAVAAARKSFVSRYYYWGQGTQVTVSS,low polyreactivity
10,QVQLVESGGGLVQAGGSLRLSCAASGRIFVYNAMGWYRQAPGKERELVATISSGGSTNYADSVKGRFTISRDNAKNTVYLQMNSLKPEDTAVYYCAARFYVSNSRISARNYWGQGTQVTVSS,high polyreactivity
11,QVQLVESGGGLVQAGGSLRLSCAASGRIFVYNTMGWYRQAPGKERELVAAMSWSGVGTYYADSVKGRFTISRDKAKNTVYLQMNSLKPEDTAVYYCNAWIYYGYFIFDYWGQGTQVTVSS,high polyreactivity
12,QVQLVESGGGLVQAGGSLRLSCAASGRIFVYYAMGWYRQAPGQEREFVATISSTGGSTYYADSVKGRFTISRDNAKNTVYLQMNSLKPEDTAVYYCAVRGWYPGVRYDYWGQGTQVTVSS,low polyreactivity
13,QVQLVESGGGLVQAGGSLRLSCAASGRIFVYYVMGWYRQAPGKERELVASITFRGSRTYYADSVKGRFTISRDNAKNTVYLQMNSLKTEETAGYYCNADVWASGSRGEGYWGQGSQVTVSS,low polyreactivity
14,QVQLVESGGGLVQAGGSLRLSCAASGRIFWANAMGWYRQAPGKERELVAAISYSGVSTYYADSVKGRFTISRDNAKNTVYLQMNSLKPADTAVYYCAADRYRKYYYWGQGTQVTVSS,high polyreactivity
15,QVQLVESGGGLVQAGGSLRLSCAASGRIFWAYAMGWYRQAPGKERELVAVITIGGRTNYADSVKGRFTISRDNAKNTVYLQMNSLKPEDTAVYYCAAERHIITWPYSRYYYWGQGTQVTVSS,high polyreactivity
16,QVQLVESGGGLVQAGGSLRLSCAASGRIFWFYTMGWNRQAPGKERELVARITTSGGSTYYADSVKGRFTISRDNAKNTVYLQMNSLKPEDTAVYYCAARPRDYHSFSLDYYYWGQGTQVTVSS,high polyreactivity
17,QVQLVESGGGLVQAGGSLRLSCAASGRIFWGYAMGWYRQAPGKERELVAGITSGGITNYADSVKGRFTISRDNAKNTVYLQMNSLKPEDTAVYYCNKDFWGYPRVRYYYWGQGTQVNVSS,high polyreactivity
18,QVQLVESGGGLVQAGGSLRLSCAASGRIFWHNAMGWYRQAPGKERELVAAITGGGSTYYADSVKGRFTISRDNAKNTVYLQMNSLKPEDTAVYYCATLGSLRYYWPGYDYWGQGTQGTVSS,high polyreactivity
19,QVQLVESGGGLVQAGGSLRLSCAASGRIFWINAMGWYRQAPGKERELVAAISWRGDSTYYADSVKGRFTISRDNAKNTVYLQMNSLKPEDTAVYYCAAETRYLYDYWGQGSQVTVSS,high polyreactivity
20,QVQLVESGGGLVQAGGSLRLSCAASGRIFWKYTMGWYRQAPGKERELVAAIRSGGGSTYYADSVKGRFTISRDNAKNTVYLQLNSLKPEDTAFYYCAAEPSQRYPWSGYDYWGQGTQVTVSS,low polyreactivity
21,QVQLVESGGGLVQAGGSLRLSCAASGRIFWNYAMGGYRQAPGKERELVASINWSGGSTYYADSVKGRFTISRDNAKNTVYLQMNSLKPEDTAVYYCNKDGRVYLDHDYWGQGTQVTVSS,low polyreactivity
22,QVQLVESGGGLVQAGGSLRLSCAASGRIFWNYAMGWYRQAPGKERELVAGISSSDGSTYYADSVKGRFTISRDNAKNTVYFQMNSLKPEDTAVYYCAVDKGGRYHVENYYWGQGTQVTVSS,low polyreactivity

row,Sequence,polyreactivity (PSR sort gate)
1,QVQLVESGGGLVQAGGSLRLSCAASGRIFWPYAMGWYRQAPGKERELVAAISSSGGSTYYADSVKGRFTISRDNAKNTVYLQRNSLKPEDTAVYYCNAYSGLSYRYGYSYWGQGTQVTVSS,high polyreactivity
2,QVQLVESGGGLVQAGGSLRLSCAASGRIFWPYAMGWYRQAPGKERELVAAITSGGSTYYADSVKGRFTISRDNAKNTVYLQMNSLKPEDTAVYYCAKRSSGVSVPVAYGGIKRYNSWGQGTQVTVSS,low polyreactivity
3,QVQLVESGGGLVQAGGSLRLSCAASGRIFWQNAMGWYRQAPGKERELVAAISSRGGTTYYADSVKGRFTISRDNAKNTVYLQMNSLIPEDTAVYYCNAALLLRYRGFFTVAAYDYWGQGTQVTVSS,low polyreactivity
4,QVQLVESGGGLVQAGGSLRLSCAASGRIFWQNAMGWYRQAPGKERELVAAISSRGGTTYYADSVKGRFTISRDNAKNTVYLQMNSLKPEDTAVYYCNAALLLRYRGFFTVAAYDYWGLGTQVTVSS,low polyreactivity
5,QVQLVESGGGLVQAGGSLRLSCAASGRIFWRNTMGWYRQAPGKERELVAAITGSSTRTYYADSVKGRFTISRDNAKNTVYLQMNSLKPEDTAVYYCAARSYPYQVAAGYVTRFNYWGQGTQVTVSS,high polyreactivity
6,QVQLVESGGGLVQAGGSLRLSCAASGRIFWSNAMGWYRQAPGKEREFVAAISSSGGRTYYADSVKGRFTISRDNAKNTVYLQMNSLKPEDTAVYYCAASNGYQAVTYDYWGQGTQVTVSS,high polyreactivity
7,QVQLVESGGGLVQAGGSLRLSCAASGRIFWSYAMGWYRPAPGKERELVAAIRSGGTTDYADSVKGRFTISRDNAKNTVYLQMNSLKPEDTAVYYCNREYRGAINYIYYYWGQGTQVTVSS,low polyreactivity
8,QVQLVESGGGLVQAGGSLRLSCAASGRIFWVYAMGWYRQAPGKERELVAAIDWSDGITYYADSVKGRFTISRDNAKNTVYLQMNSRKPEDTAVYYCGAEYVIYQTYNYWGQGTQVTVSS,high polyreactivity
9,QVQLVESGGGLVQAGGSLRLSCAASGRIFWWYAMGWYRQAPGKERELVAVIDDSGGITYYADSVKGRFTISRDKANNTVYLQMNSLNPEDTAVYYCARNVNAQKVLGGFDSWGQGTQVTVSS,low polyreactivity
10,QVQLVESGGGLVQAGGSLRLSCAASGRIFWYYAMGWYRQAPGKDWELVATITYSGVRTYYADSVKGRFTISRDNAKNSVYLQMNSLKPEDTAVYYCAAVPGASVYGYYWKFGYWGQGTQLTVSS,high polyreactivity
11,QVQLVESGGGLVQAGGSLRLSCAASGRIFWYYAMGWYRQAPGKEREFVAAIDWSGGRTYYADSVKGRFTISRDNAKNTVYLQMNSLKPEDTAVYYCAARDRAGRGKSYKPYYYWGQGTQVTVSS,high polyreactivity
12,QVQLVESGGGLVQAGGSLRLSCAASGRIFWYYAMGWYRQAPGKERELVARISSSGGSTYYADSVKGRFTISRDNAKNTVYLQMNSLKPEDTAVYYCAAEHYILYDYLWAYDYWGQGTQVTVSS,high polyreactivity
13,QVQLVESGGGLVQAGGSLRLSCAASGRIFWYYDMGWYRQAPGKERELVAAISQRGGSTYYADSVKGRFTISRDNAKNTVYLQMKSLKPEDTAVYYCAKRNPYWATREYWGLGTQVTVSS,high polyreactivity
14,QVQLVESGGGLVQAGGSLRLSCAASGRIFWYYGMGWYRQAPGKERELVAAITSGGRTYYADSVKGRFTISRDNAKNTVYLQMNSLKPEDTAVYYCAKGYVRYPSKGYTFDYWGQGTQVTVSS,high polyreactivity
15,QVQLVESGGGLVQAGGSLRLSCAASGRIFWYYTMGWYRQAPGKERELVAAISNGGSTYYADSVKGRFTISRDNAKNPVYLQMNSLKPEDTAVYYCAADNFRNPDYYYWGQGTQVTVSS,high polyreactivity
16,QVQLVESGGGLVQAGGSLRLSCAASGRIFYAYAMGWYRQAPGKETELVAAITWRGGRTFYADSVKGRFTISRDNAKNTVYFQMNSLKPEDTAVYYCATRGAPYGMDYWGQGTQVTVSS,high polyreactivity
17,QVQLVESGGGLVQAGGSLRLSCAASGRIFYAYTIGWYRQAPGKERELVAAISGSGSTYYADSVKGRFTISRDNAKNTVYLQMNSLKPVDTAVYYCAADVTGGRKYDYWGQGTQVSVSS,low polyreactivity
18,QVQLVESGGGLVQAGGSLRLSCAASGRIFYDNTMGWYRQAPGKERELVATISSAASTNYADSVKGRFTISRDNAKNTVYLQMNSLKPEDTAVYYCAAEWSTYGYQVLPVDYDYWGQGTQVTVSS,low polyreactivity
19,QVQLVESGGGLVQAGGSLRLSCAASGRIFYDNTMGWYRQAPGKERELVAVISWSTGGTYADSVKGRFTISRDNAKNTVYLQMNSLKPEDTAVYYCATPLGYGPDLDYWGQGTQVTVSS,low polyreactivity
20,QVQLVESGGGLVQAGGSLRLSCAASGRIFYDYAMGWYRQAPGKEREFVAAIRWRGGSTYYADSVKGRFTISRDNAKNTVYLQMNSLKPEDTAVYYCATKSYYKFGYWGQGTQVTVSS,high polyreactivity
21,QVQLVESGGGLVQAGGSLRLSCAASGRIFYFNAMGWNRQAPGKERELVADISSGGRTNYADSVKGRFTISRDNAKNTVYLQMNSLKPEDTAVYYCNADPYTSSGGYRGYDFDYWGQGTQVTVSS,low polyreactivity
